test: soluble on expression in E. coli; label from the status in PepcDB or PDB records

Soluble on expression in E. coli, soluble:
GLVPRGSHMMEILRGSPALSAFRINKLLARFQAANLQVHNIYAEYVHFADLNAPLNDSEQAQLTRLLQYGPALSSHTPAGKLLLVTPRPGTISPWSSKATDIAHNCGLQQVDRLERGVAYYIEASTLTAEQWRQVAAELHDRMMETVFSSLTDAEKLFIHHQPAPVSSVDLLGEGRQALIDANLRLGLALAEDEIDYLQEAFTKLGRNPNDIELYMFAQANSEHCRHKIFNADWIIDGKPQPKSLFKMIKNTFETTPDYVLSAYKDNAAVMEGSAVGRYFADHNTGRYDFHQEPAHILMKVETHNHPTAISPWPGAATGSGGEIRDEGATGRGAKPKAGLVGFSVSNLRIPGFEQPWEEDFGKPERIVTALDIMTEGPLGGAAFNNEFGRPALTGYFRTYEEKVNSHNGEELRGYHKPIMLAGGIGNIRADHVQKGEIVVGAKLIVLGGPAMNIGLGGGAASSMASGQSDADLDFASVQRDNPEMERRCQEVIDRCWQLGDANPILFIHDVGAGGLSNAMPELVSDGGRGGKFELRDILSDEPGMSPLEIWCNESQERYVLAVAADQLPLFDELCKRERAPYAVIGDATEEQHLSLHDNHFDNQPIDLPLDVLLGKTPKMTRDVQTLKAKGDALNRADITIADAVKRVLHLPTVAEKTFLVTIGDRTVTGMVARDQMVGPWQVPVADCAVTTASLDSYYGEAMSIGERAPVALLDFAASARLAVGEALTNIAATQIGDIKRIKLSANWMAAAGHPGEDAGLYDAVKAVGEELCPQLGLTIPVGKDSMSMKTRWQEGNEQREMTSPLSLVISAFARVEDVRHTLTPQLSTEDNALLLIDLGKGHNALGATALAQVYRQLGDKPADVRDVAQLKGFYDAMQALVAARKLLAWHDRSDGGLLVTLAEMAFAGHCGVQVDIAALGDDHLAALFNEELGGVIQVRAEDRDAVEALLAQYGLADCVHYLGQALAGDRFVITANDQTVFSESRTTLRVWWAETTWQMQRLRDNPQCADQEHEAKANDTDPGLNVKLSFDINEDIAAPYIATGARPKVAVLREQGVNSHVEMAAAFHRAGFDAIDVHMSDLLGGRIGLGNFHALVACGGFSYGDVLGAGEGWAKSILFNHRVRDEFETFFHRPQTLALGVCNGCQMMSNLRELIPGSELWPRFVRNHSDRFEARFSLVEVTQSPSLLLQGMVGSQMPIAVSHGEGRVEVRDDAHLAALESKGLVALRYVDNFGKVTETYPANPNGSPNGITAVTTENGRVTIMMPHPERVFRTVANSWHPENWGEDSPWMRIFRNARKQLG
MSLSPEDAIVIILSDDDTIRSALDANIHLQGRRSHLCKSRTDFLISPEADLVGCVVLDARLPDLTASDLTHLICAHAIRCPVIVLTGHGGQAMTVNATKFHVSFIPQPFDLNALAEKIHAAIRTTMEIGRLEGNYRTLTPREREVMKFVAEGLLNKQVAFKLNISEITVKAHRGQVMRKMNARTLPHLVNMAAKLDIGVAFLHEGHHHHHH
MSKELTAKKRAALNRLKTVRGHLDGIVRMLESDAYCVDVMKQISAVQSSLERANRVMLHNHLETCFSTAVLDGHGQAAIEELIDAVKFTPALTGPHARLGGAAVGESATEEPMPDASNM
MGSDKIHHHHHHERNKTLYWGGALWSPPSNWNPFTPWNAVAGTIGLVYEPLFLYDPLNDKFEPWLAEKGEWVSNNEYVLTLRKGLRWQDGVPLTADDVVFTFEIAKKYTGISYSPVWNWLGRIERVDERTLKFVFSDPRYQEWKQMLINTPIVPKHIWENKTEEEVLQAANENPVGSGPYYVESWADDRCVFKKNGNWWGIRELGYDPKPERIVELRVLSNNVAVGMLMKGELDWSNFFLPGVPVLKKAYGIVTWYENAPYMLPANTAGIYINVNKYPLSIPEFRRAMAYAINPEKIVTRAYENMVTAANPAGILPLPGYMKYYPKEVVDKYGFKYDPEMAKKILDELGFKDVNKDGFREDPNGKPFKLTIECPYGWTDWMVSIQSIAEDLVKVGINVEPKYPDYSKYADDLYGGKFDLILNNFTTGVSATIWSYFNGVFYPDAVESEYSYSGNFGKYANPEVETLLDELNRSNDDAKIKEVVAKLSEILLKDLPFIPLWYNGAWFQASEAVWTNWPTEKNPYAVPIGWNGWWQLTGIKTLFGIEAK
MSEKDFVQVAKLGKTVGLKGYVKLHNLSDFSSQFKKDATFFIKNTKEMLKIKHYNANNSTVLFENYEDIEKAKELTNLILFQSIEKSRQTCKLKKDEFFYFDILECEVFEEDKRLGKVVDILETGASYLFEIQSDEKWVEKKYPKIFFIPYLDKFVKNIDIEKRQIFCTQDAFLILENSLEHHHHHH
MKKEPKGAKNRIVIAKDEKNVLTCTSEGFEYTPDIVKNVYGKSSRPALEDWFLTELDFFRRYYPGYEVFTLGSSCVFGEKFVNYLTICEFDIDSTYAFDCLKKALRESDQAIRRKLSAMWKWDIAARKDWSIVFMVGHMDFAYFLQHRKEFQEDAHKRFMSTFTTAETKITSRDYKVMHDGAILPFDETALSPEDRFIFENYQKIKFETTPL
MSLVDRNIGGSVTAPRIRVIEIDAFERDIRLRLPFRFGAATLEKAPQAFLRVRVEDEEGRTGLGATAEMMVPKWFDKNPAFTPAQNVDQLRTSIHTAAAASLEPSELATLFAAARLNEMETVRRLPGNPLAACFGPSLIARAALDAYCRLAGISFFEAVRGNLVGIGGPMLPGDIDADAASAMLAGLRPAGAISARHTIGLVDPITEGDIVDPVGDGLPESLEAVITRYGNRWFKIKLSGTIDADIDRLTRIAAVLDRLPDYRVTVDGNEQFGAPEQLAALLGQIEARPRLARLRAAIAFVEQPFSRAITMETPLGDLAAQLPFLIDESDDGDGAFAAARRLGYTGVSSKTCKGIYRSLMKAIRIRTGTAPGLFLSGEDLTCQAGLAVQQDLALVSLLGLSHVERNGHHYVAGMQGAPQAEKLRFAAAHPDLYEQGGDGPLLSIRDGRIAIASLGAVGYASGALPDFEAMTPMSEGHHHHHH

Soluble on expression in E. coli, not soluble:
MNPKFPDSPFLNDLLARLGEVLRQSPAQDFERNLKAGVTSMLTKLDLVSREEFDVQAAVLARTREKLGQLEARLADLEKHERQADEG
MGSDKIHHHHHHMLTHYRDYESFKQVAIPLLERRPDVHQLPLGILERGDVPILMAIAEEGDRTIVVLQTIEEQAILAGDVFTYEGIRKLSRILNCPGYVGEQAIIEPLLASHSPFQIKMDQGIYTLTTVIPPVTLDYEFRLIEERFAPQAVAFGWSFIQETGALPATERSRLKNEQTIRKHIEAETLFGLFDGEQLLAMASSSRPTASGVTISYVFTPPKWRKQGIASYLVACLSEHLLQQYPMVSLYTDWSNKTSNKIYQAVGFELAGRSMQITKRPKYQ
MGSDKIHHHHHHMKFSLGPILYFWPKQQVFDFYQQAAESDVEHVYLGETVCSKRRELKLDDYLAIAHMLREAGKKVTLSTMTLLEAPAELRELGKYCDNGEFDVEANDVSAIGVLQEQGLNFTAGPGINIYNHQSLRRLIDMGMTRWVVPFELSRDWLQDVLQHNLIDTVRDCFDVEVFSFGHIPLAWSGRCFTARSENRPKDQCELCCIKYPEGREVKSQEGQQVFVLNGIQTQSGTRYNLINQLPGMNGLVDIVRISPQPEGTFDWLQRFRSNINGEHPVTLTSKENNGYWLQLAGLATG
MKVETCVYSGYKIHPGHGKRLVRTDGKVQIFLSGKALKGAKLRRNPRDIRWTVLYRIKNKKGTHGQEQVTRKKTKKSVQVVNRAVAGLSLDAILAKRNQTEDFRRQQREQAAKIAKDANKAVRAAKAAANKEKKASQPKTQQKTAKNVKTAAPRVGGKR
MGSDKIHHHHHHMNKHFTFTINSICLDENYHPSDKTRITTNFANLARGSHRQANLRNALKMIDNSFNALAHWDNPKGDRYSVELEIISVNLDIDGSGQTFPSIEVLKTNIVDHKTNKRIEGIVGNNFSSYVRDYDFSVLLAEHNKGQAKFSIPDDFGGLHGKLFQSFVNSDAYKQNFNKPPVICLSVSDNKTYHRIENQHPVLGVEYQPNESSLTEQYFKKMGLQVRYFMPPNSVAPLAFYFFGDLLNDYTHLELISTISTMGTFQKIYRPEIYNANAVAGKCYQPNLKNLDHSLTQIVYDRAERSQLANEQGKFAAEHFIKPYQTFFEQWPANYL
GPGSMTAGAPTTVAGEYPRPSASLHPSVDCSSLNRVPTATAAAPPPPSPRLSGYVMPSVVNPYSQGASQQPAMAHVSEPVNPASYLQQANAMGRWSYQQPPLQQPQYPTLDPVATRVAAIDAEEAAMAAEEMTMRAKLAELQVARKQQEEEQLYLSHGWAQMLEKEERYYTEPVIDLRPDIMAREQQCAMLHNHLQQVEAQAQHAQSQLQGTEYILRDAESFEQERRRVQDAFQEVERRRRECVARAERYFDVEAKRVVEGNKVIRKLDSQLREMTQRGPLAQLQDGNRHPFHRS
MKKAIQFGAGNIGRGFIGGLLVKSGYHVVFADVNEYILNSINKDKKYTIHIRDVECIDEVIDNISAVSSIKEEIIDEIVQAEIITTAVGPLVLTKIASTIAKGIKARKEKGLTSNLNIIACENAIYASSSLKEEVLKYLNKEEVEYLEMYVGFPNCSVDRIVPPGKNENPLDVTVENFYEWNVEKQGFKGEIPTIVGMNLADNLMAYIERKLFTLNTGHAITAYIGYLKGYKTIEESIKDKFICDIVKSAMVESGEGLIKKYNFDSEVHYKYIDKILNRFKNPYLNDDVLRVGREPLRKLSDKDRLIKPLMTAKSYGLSVDNLILGIGAALHYNNSEDTQSVELQELIKSIGVKKAVAKIANISNDEELLNNIEKSYIFMKNL
MKTFKAVRFQIVNEHGRIIEYELEDGVIINKEESGTGWLLEIVISNEHYETFKEYQDNEQLLDIRVVITRPANDPALFESTVKSIKNFKTTMSIVFECHIYTLRQQYAESLLEQLIDDGLSGEELKKSFNRMMQSKPKLKDEKLEE
PEREAVALVGTRRASPWALAFARRLARELAEAGLWVVSGLARGIDREAHLGALEAGGRTLGVLGSALDRVYPPENRPLAQRMDLLSEFPFGTGPKPEFFPRRNRLIAGLCRAVVVVEAPLDSGALITARHALELGKEVLAVPGRPTDERSLGANRLIQDGAYPVLSAEDVLSYLGMSARP
MGSDKIHHHHHHMSLIHLQADHIRPLVYLHGKVDDHEVAFLEHLNGPPKNAVRVGNTVTFIEHDQTAYSVRAERIQGVLPPAFAGVISDLESGYQFVLGGRSRLAGRPSQLVRIIPNDDNRYSYQVWLDMDTYLPLRYDMLNLEKQLLEQVLVVELIVLDDAPAILREAYKQDWPEIMPQPQREQADNWQFKWLPQGFKILVKDNHRLIGSHEAVEYIALSDGLVNISVYVARAGETALPDELMTRNGLSLAAERVGNAEVVAVGKVPAETLSRIAKSITIE
MGSDKIHHHHHHVRACCGDQRAMSATDHGLPAIAELTDKELEVLRLLTAGHTIKSIAALLDRSEASINERLRDARRKTGVGSSRELARLVAGQENWPRKTDLSTPAVSGDADGQPALAARHWPKGTIAMFTLLPLAAGLMLVSAASQQADGPQSSHAAAAIASPLVGKWSLDTSRIPADERPRSVMIAFSVSPDQQWSTQVDIVAPDGSKMTATSTARADGVAVPISGNIPIFDTASLRQPAPNTLVMTLGKSGTPVATRVYTVARDGNSMTETIVWADKTMPKMETTYFNRVG
MERCGWVSQDPLYIAYHDNEWGVPETDSKKLFEMICLEGQQAGLSWITVLKKRENYRACFHQFDPVKVAAMQEEDVERLVQDAGIIRHRGKIQAIIGNARAYLQMEQNGEPFVDFVWSFVNHQPQVTQATTLSEIPTSTSASDALSKALKKRGFKFVGTTICYSFMQACGLVNDHVVGCCCYPGNKP
MGSDKIHHHHHHMNRVISVGFEHPKSYLDSNQSVEAKSRIDSYIDKKMDEWNKEVVYAKHLYEPSVNKEYYKRHMIEHVWRIRMSRTVQAKALHQIAKISPEAAQLYARYQDEEMLHDILFKQDALALGVTEDTIKNTEPMFATRLLMGFKYFVAEHENPLGAVAYSYLVEYVTAKITPDQVSNLKSELGSENIKGQVAHINTDLSHDHSGDMWEIVRALLFTESDIEMFIKYIDEIQDLLAMYFKELYEKTIAKNESQAA

Source: the DeepSol protein solubility set
